Laboratory results as given in the supplement of paper PMC6755084.

B1: minF1; a variant is named by its letters at N, in order (parent)
chain: GAGACCGCAACTGAAAAGTTGTTNNNNAANNNNGGNTNNATTTCTGCACGTAGAAGCAAAAGGC
B2: minF1; the commonest letter at each place (parent)
chain: GAGACCGCAACTGAAAAGTTGTTATCAGAAATGGATGGGTTGAATTTCTGCACGTAGAAGCAAAAGGC

Variants of: B1
Test: fraction ligated after 30 min (ligated reads / total reads); higher = more ligase activity
Settings: with F1*subA RNA substrate (template-directed ligation), 42 °C
How it was run: (§1)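 Fraction ligated for every variant was calculated as the share of total reads that came from ligated RNA. Minimized ligase ribozyme variants were made from oligo-pool templates by PCR amplification, T7 transcription and gel purification. After gel separation of ligated and unligated RNAs, reverse transcription with barcoded primers and MiSeq sequencing followed. Only core bases at quality ≥30 passed filtering.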

Point of comparison: ATCGAGGAGTG G34T, fraction ligated 0.00393. Against it:
- ATCGGGATGTG A29T — higher, 0.0354
- ATCGTGGAGTA — lower, 0.00217
- ATCGTGGAGTG — higher, 0.00496
- ATCGTGATGTG — higher, 0.0261
- ATCGTGATGTA — lower, 0.00285
- ATCATATGTGA A28G — higher, 0.00411
- ATCATGGTGTG A28G — lower, 0.0033
- ATCGAGATTGA — lower, 0.00372
- ATGATGGTGTG — higher, 0.00658
- ATGATGGTGTA — higher, 0.00485
- ATCGTGGAGTT G34T T37G — lower, 0.00145
- ATCGATGGGGT G34A G35T T37G A40T — lower, 0.00147
- ATCAATGGGTA A28G — lower, 0.000828
- ATCGATGGGTT G34A G35T T37G — lower, 0.00178
- ATCGAGAGTGA — lower, 0.00383
- ATCGGGATGTA A29T — lower, 0.00281
- ATCGAATGTGA — higher, 0.00581
- ATCGAGATGTG — higher, 0.0313
- ATCGAGATGTA — lower, 0.00349
- ATCGTGGTTGA — lower, 0.00112
- ATCAATGTGTG — higher, 0.00785
- ATCAATGTGTA — higher, 0.00707
- ATCAATGGGTA A28G G34A — lower, 0.00228
- ATCAATGGGTA A28G G34T — lower, 0.00241
- ATCATGGATGA A28G — lower, 0.00362
- ATCAATGGGTT G34A T37G A40G — lower, 0.00153
- ATCAGGATGTG A28G — higher, 0.0124
- ATCGAGGAGTG — higher, 0.0042
- ATCGAGGAGTA — lower, 0.00327
- ATCATGATGTA — lower, 0.00345
- ATCATGATGTG — higher, 0.0143
- ATGAGATGTGA A29T — lower, 0.00278
- ATGAGATGTGA A29G — higher, 0.00416
- ATCATGGAGTA G34T — higher, 0.00594

Variants of: B2
Test: as above
Settings: with F1*subA RNA substrate (template-directed ligation), 42 °C
How it was run: as §1

Point of comparison: T23C A44G, fraction ligated 0.0605. Against it:
- T23C A35G — lower, 0.0141
- T23C A35T — lower, 0.00507
- T23C A35C — lower, 0.00513
- T23A — higher, 0.215
- T23G — higher, 0.8
- T23C — higher, 0.318
- T23G A30T — higher, 0.806
- T23G A30G — higher, 0.803
- T23G A30C — higher, 0.789
- T23C G37C — lower, 0.00507
- T23C G37A — lower, 0.00595
- T23C G37T — lower, 0.0164
- T23A G28C — higher, 0.132
- T23A G28A — higher, 0.178
- T23A G28T — higher, 0.176
- T23A A35G — lower, 0.0122
- T23A A35T — lower, 0.0125
- T23A A35C — lower, 0.00609
- T23G A29T — higher, 0.803
- T23G A29G — higher, 0.813
- T23G A29C — higher, 0.824
- T23G A27G — higher, 0.795
- T23G A27T — higher, 0.805
- T23G A27C — higher, 0.714
- T23G A31C — higher, 0.783
- T23G A31T — higher, 0.826
- T23G A31G — higher, 0.82
- T23A A43C — lower, 0.00617
- T23A A43G — lower, 0.00242
- T23A A43T — lower, 0.00536
- T23C A44C — lower, 0.0323
- T23C A44T — lower, 0.0534
- T23C G33T — higher, 0.0728
- T23C G33C — higher, 0.147
- T23C G33A — higher, 0.304
- T23C A31G — higher, 0.392
- T23C A31T — higher, 0.517
- T23C A31C — higher, 0.328
- T23A G42C — lower, 0.00428
- T23A G42T — lower, 0.003
- T23A G42A — lower, 0.0065
- T23C A43T — lower, 0.00662
- T23C A43C — lower, 0.00429
- T23C A43G — lower, 0.00398
- T23A T25G — lower, 0.00615
- T23A T25A — lower, 0.00503
- T23A T25C — lower, 0.0136
- T23A G33T — lower, 0.0493
- T23A G33C — higher, 0.0701
- T23A G33A — higher, 0.178
- T23C A30C — higher, 0.21
- T23C A30T — higher, 0.221
- T23C A30G — higher, 0.391
- T23A A29T — higher, 0.156
- T23A A29C — higher, 0.15
- T23A A29G — higher, 0.189
- T23G A44C — higher, 0.693
- T23G A44G — higher, 0.764
- T23G A44T — higher, 0.792
- T23C C26G — lower, 0.00264
- T23C C26A — lower, 0.006
- T23C C26T — lower, 0.0218
- T23A A24T — lower, 0.0331
- T23A A24C — lower, 0.0188
- T23A A24G — lower, 0.00909
- T23A T32C — lower, 0.00262
- T23A T32A — lower, 0.00638
- T23A T32G — lower, 0.000962
- T23C T32C — lower, 0.0041
- T23C T32G — lower, 0.00399
- T23C T32A — lower, 0.00196
- T23A A27C — lower, 0.0462
- T23A A27T — higher, 0.488
- T23A A27G — higher, 0.234
- T23C T25A — lower, 0.0129
- T23C T25C — lower, 0.0306
- T23C T25G — lower, 0.0076
- T23A A31T — higher, 0.325
- T23A A31G — higher, 0.264
- T23A A31C — higher, 0.181
- T23G A35T — lower, 0.031
- T23G A35G — higher, 0.247
- T23G A35C — lower, 0.0185
- T23G A24C — higher, 0.0996
- T23G A24T — higher, 0.104
- T23G A24G — lower, 0.00157
- T23C A29T — higher, 0.288
- T23C A29G — higher, 0.277
- T23C A29C — higher, 0.254
- T23A A30T — higher, 0.132
- T23A A30C — higher, 0.126
- T23A A30G — higher, 0.358
- T23C G42T — lower, 0.00449
- T23C G42C — lower, 0.00249
- T23C G42A — lower, 0.0247
- T23C A24T — lower, 0.0194
- T23C A24C — lower, 0.0187
- T23C A24G — lower, 0.0315
- T23A G37T — lower, 0.00942
- T23A G37A — lower, 0.00757
- T23A G37C — lower, 0.00499
- T23C A27T — higher, 0.595
- T23C A27G — higher, 0.354
- T23C A27C — higher, 0.133
- T23A G34A — lower, 0.0227
- T23A G34C — lower, 0.00115
- T23A G34T — lower, 0.00436
- T23A A44C — lower, 0.0208
- T23A A44T — lower, 0.0479
- T23A A44G — lower, 0.0455
- T23G A43T — higher, 0.0898
- T23G A43C — higher, 0.0643
- T23G A43G — higher, 0.0673
- T23C G28A — higher, 0.242
- T23C G28C — higher, 0.224
- T23C G28T — higher, 0.326
- T23A T36G — lower, 0.0346
- T23A T36A — lower, 0.0114
- T23A T36C — lower, 0.012
- T23G C26T — higher, 0.434
- T23G C26A — higher, 0.123
- T23G C26G — lower, 0.0528
- T23C G34T — lower, 0.00428
- T23C G34A — lower, 0.0166
- T23C G34C — lower, 0.0023
- T23A C26G — lower, 0.00512
- T23A C26A — lower, 0.00635
- T23A C26T — lower, 0.0201
- T23C T36A — lower, 0.0123
- T23C T36C — lower, 0.00904
- T23C T36G — lower, 0.0318
